Measurements published in article PMC5993284, “Peptide inhibitors of the anaphase promoting-complex that cause sensitivity to microtubule poison” (PLoS ONE, 2018).
“Also recorded” adds a separate entry of the source. Ends that are not written are not given here. * marks the point of attachment. Biotin = O=C1N[C@H]2[C@H](CS[C@H]2CCCCC(=O)*)N1

Legend:
APC/C^Cdc20 = molecular target: T1, APC/C^Cdc20 (Saccharomyces cerevisiae, UniProt P16522+P53886); assay: biochemical; type: biochemical; conditions: for inhibition of APC/C^Cdc20 activity (in words): 220 μM peptide, 35S-Pds1 substrate, time course 0-60 minutes, vs buffer only, n = 3
T1 construct: constructed within full-length Cdc20 by site-directed mutagenesis for analysis in vitro in the APC/C^Cdc20 assay; The APC/C was purified for enzyme assays from 1 mL of TAP-tagged Cdc16 yeast extract (SCSY51); made in house; host or cells: Cdc20: in vitro transcription/translation in rabbit reticulocyte lysate, used unpurified; APC/C: S. cerevisiae strain SCSY51 (Cdc16-TAP) extract, captured on IgG magnetic beads
Method: Full-length, radio-labeled protein purifications were preformed as previously described. ^35S-Pds1 was prepared in a 500 μL IVT/T (In Vitro Transcription/Translation) reaction (Promega, USA), which contained 400 μL rabbit reticulocyte lysate, 20 μL of L-^35S-methionine (PerkinElmer, USA), 10 μg of plasmid DNA, and the remaining volume as nuclease-free ddH2O as recommended by the manufacturer. The reaction mixture was incubated for 2 hours at room temperature and gently mixed every 30 minutes. The reaction was added to pre-equilibrated IgG Sepharose beads (GE Healthcare, USA) in Bio-spin disposable chromatography columns (Bio-Rad, USA) for binding for 2 hours at room temperature. To ensure efficient binding, the beads were re-suspended several times every 30 minutes. After binding, the beads were washed with 5 mL wash buffer, containing 200 mM 4-(2-hydroxyethyl)-1-piperazineethanesulfonic acid (HEPES) at pH 8.0, 150 mM NaCl, 10% (v/v) glycerol, and 1 mM dithiothreitol (DTT). The ^35S-Pds1 was cleaved from the beads using TEV (Tobacco Etch Virus) protease in 1x TEV buffer (Invitrogen, USA) for 2 hours at room temperature, and the mixture was re-suspended several times every 30 minutes to promote efficient cleavage. The elution was collected and concentrated by employing an Amicon Ultra filter column (Millipore, Ireland). The concentrated ^35S-Pds1 was collected in a new tube, and stored at -20 °C.
The production of Cdc20 or Cdh1 was prepared by IVT/T reactions, where 16 μL of rabbit reticulocyte lysate, 20 μM L-methionine, 0.4 μg of plasmid DNA, and a volume of nuclease-free ddH2O for a total volume of 20 μL. This freshly synthesized Cdc20 or Cdh1 protein was used directly in all APC/C assays after a 1-hour synthesis reaction at room temperature. The APC/C was purified for enzyme assays from 1 mL of TAP-tagged Cdc16 yeast extract (SCSY51) where extract was mixed with 50 μL 50:50 slurry magnetic beads (Invitrogen, Norway) for 2 hours at 4 °C. After incubation, the beads were washed with 3 mL APC/C wash buffer (200 mM of HEPES, 150 mM of NaCl and 10% (v/v) of glycerol). APC/C bound to IgG magnetic beads was used directly in the enzyme assays.
APC/C assays were performed by adding the reaction contents in following order: 4.3 μL of QAH buffer, 20 μL of rabbit reticulocyte lysate containing Cdc20 or Cdh1 with or without an additional volume of recombinant checkpoint protein(s) or inhibitor peptides, 2.4 μL ubiquitin aldehyde (Boston Biochem, USA), APC/C, 16 μL pre-charged E1/E2/ATP/ubiquitin mix, and 13.3 μL of ^35S-Pds1 with QAH buffer (20 mM HEPES at pH 8.0, 100 mM NaCl, and 1 mM MgCl2). The E1/E2/ATP/ubiquitin mix were pre-charged by mixing 1 μL of E1 (Boston Biochem, USA), 1 μL of E2 (Boston Biochem, USA), 14.4 μL of ATP, 14.4 μL of […] (Boston Biochem, USA), and 17.2 μL of QAH buffer and incubated for 15 minutes at room temperature. Approximately 15 μL of samples were taken out at each time point, and the reaction was stopped by the addition of 2x protein sample buffer (125 mM Tris-HCl pH 6.8, 4% SDS, 20% glycerol, and 0.002% bromophenol blue, with 10% (final v/v) 2-mercaptoethanol added in fresh directly before use).
For inhibitor titration and time-course experiments, recombinant Bub3, Mad2, Mad3, and the Mad3-Bub3 complex were expressed and purified as previously described. […] For inhibition of APC/C the co-factor Cdc20 or Cdh1 was made fresh by IVT/T, and pure recombinant checkpoint proteins or inhibitor peptides were added to the IVT/T mixture and incubated for an additional hour at room temperature. In titrations, a dilution series of the checkpoint protein(s) were made before incubation with the Cdc20 co-factor. SDS-PAGE was performed using stand protocols (BioRad, USA).

APC/C = assay: Biotinylated peptide pull-down of purified APC/C, Western blot; type: binding, Saccharomyces cerevisiae; conditions: 20 μM biotinylated peptide, purified yeast APC/C, 1 h at 4 °C, streptavidin/Avidin beads, n = 3
Method: For APC/C purification, the APC/C which contain Cdc16-TAP-tag was isolated from 2 mL arrested yeast lysate by 120 μL IgG sepharose 6 Fast Flow beads (GE Healthcare Life Sciences) and incubate for 2 h at 4 °C on a rotating wheel. Beads were collected washed with 5 mL of APC/C wash buffer (200 mM Hepes pH8.0, 150 mM NaCl, 10% glycerol). Beads were resuspended in 150 μL of APC/C wash buffer contain 17.6 units of AcTEV protease (Invitrogen, Carlsbad, CA) at 4°C for 3 h with pipetting every 20 minutes. The purified APC/C was collected in the flow-through.
For APC/C binding assays, 20 μM biotinylated peptides or 20 μM peptides only as a negative control were incubated with purified APC/C and 100 μL APC/C wash buffer which contains phosphatase inhibitors (200 mM Hepes pH 8.0, 150 mM NaCl, 10% glycerol, 10 mM NaF, 1 mM NaVO4, 5 mM Na-pyrophosphate, 10 mM 2-glycerol phosphate) for 1 h at 4 °C. The mixtures were applied to 120 μL streptavidin beads (Dynabeads MyOne Streptavidin T1, Invitrogen) for 30 min at 4 °C with gentle pipetting every 10 min. Beads were washed with 1 mL of PBST buffer (Phosphate buffer saline and 0.1% Tween 20) three times SDS-PAGE protein sample was added directly. For APC/C binding competition experiments, the biotinylated peptide and 10-fold excess non-biotinylated peptides were added to purified APC/C at same time.
Free D-biotin in 10% DMSO was used for the control binding assays. For pre-coating APC/C with biotin, a modified APC/C purification was performed. 2 mL yeast lysate was incubated with 120 μL IgG Sepharose beads and additional 20.4 μM free biotin or non-biotin solvent as a positive control was added and samples were incubated for 2 h at 4 °C on a rotating wheel. Purified pre-coated APC/C was then removed from the IgG Sepharose following the standard purification procedure. 20 μM biotinylated peptides or 20 μM peptides as a negative control were incubated with pre-coated APC/C and 100 μL APC/C wash buffer which contain phosphatase inhibitors for 1 h at 4 °C. In addition, 20 μM biotinylated peptide was added and incubated with pre-coated APC/C in a non-biotin containing solvent as positive control. Pre-coated APC/C binding procedures were same as above. For pre-coating streptavidin beads with biotin, streptavidin beads were washed in the presence of 10.2 nmol/mL D-biotin in PBST buffer or non-biotin solvent as a positive control before use. Pre-coated streptavidin beads were incubated with purified APC/C-peptide complexes with an extra […] biotin for 30 minutes with gentle pipetting every 10 min at 4 °C.
Proteins were separated in SDS-PAGE gels and then were transferred to PVDF membrane. Blocking was performed by incubating samples in 20 mL PBST with 5% milk at 4 °C. Rabbit anti-tap (Thermo, CAB1001) was used as primary antibodies at a 1:1000 dilution and incubated for 2 hours at RT. Anti-rabbit HRP (Jackson, USA) was then used as secondary antibody at 1:5000 dilution and incubate for 1 hr at RT. Chemiluminescence signals were detected using an ImageQuant LAS 4000 (GE Healthcare Bio-Sciences, USA). For cell cycle timing Western blots anti-MYC and anti-Actin antibodies were employed (ABCAM, UK).

## SQ19: C-terminal 19 amino acids, SQ19 (Cdc20 213–232) peptide (SSLRQKSYIMKKRTHYSYQQ; UniProt P26309 213-232, looked up, fragment)
APC/C^Cdc20
  inhibition of APC/C^Cdc20 activity (in words): displayed a low level of inhibitory activity
APC/C
  binding to APC/C (in words): displayed the ability to bind APC/C similar to the control peptide DQ36

## DK27: defined Mad2-binding motif peptide DK27 (Cdc20 197–223) (Biotin-DMNKRILQYMPEPPKCSSLRQKSYIMK)
APC/C^Cdc20
  inhibition of APC/C^Cdc20 activity (in words): displayed a diminished ability to inhibit APC/C^Cdc20 although a significant difference with the buffer only control was still observed
APC/C
  binding to APC/C (in words): retained the ability to bind with the APC/C; also recorded: displayed the ability to bind APC/C similar to the control peptide DQ36

## biotinylated-DQ36: DQ36 containing an N-terminal biotin (Biotin-DMNKRILQYMPEPPKCSSLRQKSYIMKKRTHYSYQQ)
APC/C
  binding to APC/C (in words): able to pull-down purified APC/C

## PS46: N-terminal 46 amino acid peptide called PS46 (Cdc20 167–213) (LPPPNASPISHLRAQTKIVFKQNVAEACGLDMNKRILQYMPEPPKCS; UniProt P26309 167-213, looked up, fragment)
APC/C^Cdc20
  inhibition of APC/C^Cdc20 activity (in words): observed to inhibit APC/C^Cdc20
APC/C
  binding to APC/C (in words): able to bind to the APC/C directly, although consistently weaker binding was observed relative to DQ36; also recorded: consistently observed to have weaker APC/C binding activity relative to wild type DQ36

B1: Mad3-Bub3 complex + 0.5 μM Mad2: Mad3-Bub3 complex in the presence of 0.5 μM Mad2 (protein)
chain 1: MKAYAKKRISYMPSSPSQNVINFEEIETQKENILPLKEGRSAAALSKAIHQPLVEINQVKSSFEQRLIDELPALSDPITLYLEYIKWLNNAYPQGGNSKQSGMLTLLERCLSHLKDLERYRNDVRFLKIWFWYIELFTRNSFMESRDIFMYMLRNGIGSELASFYEEFTNLLIQKEKFQYAVKILQLGIKNKARPNKVLEDRLNHLLRELGENNIQLGNEISMDSLESTVLGKTRSEFVNRLELANQNGTSSDVNLTKNNVFVDGEESDVELFETPNRGVYRDGWENFDLKAERNKENNLRISLLEANTNLGELKQHEMLSQKKRPYDEKLPIFRDSIGRSDPVYQMINTKDQKPEKIDCNFKLIYCEDEESKGGRLEFSLEEVLAISRNVYKRVRTNRKHPREANLGQEESANQKEAEAQSKRPKISRKALVSKSLTPSNQGRMFSGEEYINCPMTPKGRSTETSDIISAVKPRQLTPILEMRESNSFSQSKNSEIISDDDKSSSSFISYPPQR
chain 2: MQIVQIEQAPKDYISDIKIIPSKSLLLITSWDGSLTVYKFDIQAKNVDLLQSLRYKHPLLCCNFIDNTDLQIYVGTVQGEILKVDLIGSPSFQALTNNEANLGICRICKYGDDKLIAASWDGLIEVIDPRNYGDGVIAVKNLNSNNTKVKNKIFTMDTNSSRLIVGMNNSQVQWFRLPLCEDDNGTIEESGLKYQIRDVALLPKEQEGYACSSIDGRVAVEFFDDQGDDYNSSKRFAFRCHRLNLKDTNLAYPVNSIEFSPRHKFLYTAGSDGIISCWNLQTRKKIKNFAKFNEDSVVKIACSDNILCLATSDDTFKTNAAIDQTIELNASSIYIIFDYEN
chain 3: MSQSISLKGSTRTVTEFFEYSINSILYQRGVYPAEDFVTVKKYDLTLLKTHDDELKDYIRKILLQVHRWLLGGKCNQLVLCIVDKDEGEVVERWSFNVQHISGNSNGQDDVVDLNTTQSQIRALIRQITSSVTFLPELTKEGGYTFTVLAYTDADAKVPLEWADSNSKEIPDGEVVQFKTFSTNDHKVGAQVSYKY
modifications: Mad2 added separately at 0.5 uM
APC/C^Cdc20; Mad3-Bub3 complex in the presence of 0.5 μM Mad2, ± sd, three independent titrations, read-out: IC50
  IC50: 70 ± 3 nM

B2: biotinylated-PQ65: PQ65 containing an N-terminal biotin (peptide, UniProt P26309 169-232, looked up, fragment)
chain: Biotin-PPNASPISHLRAQTKIVFKQNVAEACGLDMNKRILQYMPEPPKCSSLRQKSYIMKKRTHYSYQQ
APC/C
  binding to APC/C (in words): able to pull-down purified APC/C
